Patent US20220195383A1, “METHOD FOR PRODUCING PLURIPOTENT STEM CELLS” (KANEKA CORPORATION, priority 2019, published 2022)

Key:
[1] = system: human iPS cell line RPChiPS771-2; assay: Adhesion culture with addition of WNT3A protein into medium, quantitative real-time PCR; format: cell-based
Description: (§1) These cells were lysed using TRIzol™ Reagent (Thermo Fisher Scientific K.K.). Total RNA was isolated and purified from a cell solution obtained by lysing with TRIzol™ Reagent using a PureLink (registered trademark) RNA Mini kit (Thermo Fisher Scientific K.K.). A concentration of the purified RNA was measured using BioSpec-nano (Shimadzu Corporation), and 40 ng was separated. 2 μL of ReverTra Ace (registered trademark) qPCR RT Master Mix (TOYOBO CO., LTD.) and RNase Free dH2O were added to the separated RNA to prepare 10 μL. cDNA synthesis was performed using SimpliAmp Thermal Cycler (Thermo Fisher Scientific K.K.). […] A synthesized cDNA solution was diluted 100-fold with 10 mM Tris-HCl pH 8.0 (NACALAI TESQUE, INC.) and added to a 384-well PCR plate (Thermo Fisher Scientific K.K.) at 5 μL/well. KOD SYBR® qPCR Mix (TOYOBO CO., LTD.), a Forward primer prepared to 50 μM, a Reverse primer prepared to 50 μM, and DEPC-treated water (NACALAI TESQUE, INC.) were mixed at a ratio of 100:1:1:48. This mixed solution was added to the above-mentioned 384-well PCR plate at 15 μL/well and mixed. For the primers, bACT, OCT4, SOX2, Nanog, Brachyury, and SOX17 were used. The 384-well PCR plate was subjected to centrifugal separation to remove air bubbles in the wells, and quantitative real-time PCR analysis was performed using QuantStudio 7 Flex Real-Time PCR System (Thermo Fisher Scientific K.K.).
(§2) The human iPS cell lines 201B7 and RPChiPS771-2 maintenance-cultured in the procedure of Step 1 of Reference Example 3 were treated with Accutase for 3 to 5 minutes to release the cells from the dish. The cells were dispersed into single cells by pipetting. These cells were suspended in a StemFit (registered trademark) AK02N medium containing Y-27632 at a final concentration of 10 μM. A part of the cells was stained with trypan blue to measure the number of living cells. A cell suspension was prepared so that it contained 4.6×10^4 cells per mL using the StemFit (registered trademark) AK02N medium containing Y-27632 a final concentration of 10 μM. 2 mL of the cell suspension per well was seeded in a 6-well plate for cell culture (Sumitomo Bakelite Co., Ltd.) coated with 0.5 μg of Vitronectin per 1 cm^2. WNT3A protein (R&D Systems, Inc.) was added to each of the wells so that final concentrations were 10 pg/mL, 100 pg/mL, 1 ng/mL, 10 ng/mL, and 100 ng/mL, and adhesion culture was performed at 37° C. in a 5% CO2 environment. The day when the cells were seeded was defined as day 0 of the culture. The adhesion culture was performed until day 5 of the culture. Medium exchange was performed every day. […] Phase-contrast images of the cells were acquired using a phase-contrast microscope on day 5 of the culture. FIG. 8 and FIG. 9 show the acquired phase-contrast images. Furthermore, on day 5 of the culture, the culture supernatant was recovered from the wells. 0.5 mL of Accutase was added per well to treat the cells for 3 to 5 minutes. The cells were released from the wells, and were dispersed into single cells by pipetting. These cells were suspended in a StemFit (registered trademark) AK02N medium containing Y-27632 at a final concentration of 10 μM. A part of the cells was stained with trypan blue to measure the number of living cells.
(§3) The phase-contrast images on day 5 of the culture were analyzed with image analysis software (for example, ImageJ), and a proportion of a surface area of cells with respect to a culture area was calculated. From this value and the culture area (9.2 cm^2/well), an area in which the cell surface was in contact with the medium was calculated. Furthermore, a surface area (cm^2) in contact with the medium per cell was calculated from an area in which the cell surface was in contact with the medium and from the number of living cells on day 5 of the culture. […]

[2] = system: human iPS cell line 201B7; assay: as above; format: cell-based; conditions: Line 201B7, day 5
Description: as §1, §2, §3

[3] = WNT3A protein in medium 10 pg/mL, adhesion culture, Line RPChiPS771-2, day 5
[4] = WNT3A protein in medium 100 pg/mL, adhesion culture, Line RPChiPS771-2, day 5
[5] = WNT3A protein in medium 1 ng/mL, adhesion culture, Line RPChiPS771-2, day 5
[6] = WNT3A protein in medium 10 ng/mL, adhesion culture, Line RPChiPS771-2, day 5
[7] = WNT3A protein in medium 100 ng/mL, adhesion culture, Line RPChiPS771-2, day 5
[8] = adhesion culture with added WNT3A, lines 201B7 and RPChiPS771-2, day 5
[9] = WNT3A protein in medium 10 pg/mL
[10] = WNT3A protein in medium 100 pg/mL
[11] = WNT3A protein in medium 1 ng/mL
[12] = WNT3A protein in medium 10 ng/mL
[13] = WNT3A protein in medium 100 ng/mL

B1: WNT3A protein: WNT3A protein (R&D Systems, Inc.) added to the adhesion culture medium at 10 pg/mL to 100 ng/mL (protein, UniProt P56704 19-352, looked up)
Protein Wnt-3a: SYPIWWSLAVGPQYSSLGSQPILCASIPGLVPKQLRFCRNYVEIMPSVAEGIKIGIQECQHQFRGRRWNCTTVHDSLAIFGPVLDKATRESAFVHAIASAGVAFAVTRSCAEGTAAICGCSSRHQGSPGKGWKWGGCSEDIEFGGMVSREFADARENRPDARSAMNRHNNEAGRQAIASHMHLKCKCHGLSGSCEVKTCWWSQPDFRAIGDFLKDKYDSASEMVVEKHRESRGWVETLRPRYTYFKVPTERDLVYYEASPNFCEPNPETGSFGTRDRTCNVSSHGIDGCDLLCCGRGHNARAERRREKCRCVFHWCCYVSCQECTRVYDVHTCK
Relative gene expression level with respect to ACTB in 2^−Λ Ct, Nanog [1, 3]: 5.06 × 10^−2 | Relative gene expression level with respect to ACTB in 2^−Λ Ct, OCT4 [1, 3]: 4.06 × 10^−1 | Relative gene expression level with respect to ACTB in 2^−Λ Ct, SOX2 [1, 3]: 2.64 × 10^−2 | Relative gene expression level with respect to ACTB in 2^−Λ Ct, Nanog [1, 4]: 5.30 × 10^−2 | Relative gene expression level with respect to ACTB in 2^−Λ Ct, OCT4 [1, 4]: 4.44 × 10^−1 | Relative gene expression level with respect to ACTB in 2^−Λ Ct, SOX2 [1, 4]: 2.77 × 10^−2 | Relative gene expression level with respect to ACTB in 2^−Λ Ct, Nanog [1, 5]: 4.88 × 10^−2 | Relative gene expression level with respect to ACTB in 2^−Λ Ct, OCT4 [1, 5]: 3.87 × 10^−1 | Relative gene expression level with respect to ACTB in 2^−Λ Ct, SOX2 [1, 5]: 2.89 × 10^−2 | Relative gene expression level with respect to ACTB in 2^−Λ Ct, Nanog [1, 6]: 5.53 × 10^−2 | Relative gene expression level with respect to ACTB in 2^−Λ Ct, OCT4 [1, 6]: 4.42 × 10^−1 | Relative gene expression level with respect to ACTB in 2^−Λ Ct, SOX2 [1, 6]: 2.77 × 10^−2 | Relative gene expression level with respect to ACTB in 2^−Λ Ct, Brachyury [1, 7]: 3.07 × 10^−4 | Relative gene expression level with respect to ACTB in 2^−Λ Ct, Nanog [1, 7]: 6.65 × 10^−2 | Relative gene expression level with respect to ACTB in 2^−Λ Ct, OCT4 [1, 7]: 4.56 × 10^−1 | Relative gene expression level with respect to ACTB in 2^−Λ Ct, SOX2 [1, 7]: 1.66 × 10^−2 | Relative gene expression level with respect to ACTB in 2^−Λ Ct, SOX17 [1, 7]: 1.11 × 10^−3 | Amount of WNT3A protein contained in unit of medium in contact with unit area of cell surface at which expression of the differentiation marker gene was detected [1, 8]: ≥ 5.2×10^4 μg/mL·cm^2 | Amount of WNT3A protein contained in unit of medium in contact with unit area of cell surface at which expression of the differentiation marker gene was not detected [1, 8]: ≤ 6.7×10^3 μg/mL·cm^2 | Relative gene expression level with respect to ACTB in 2^−Λ Ct, Nanog [2, 9]: 2.59 × 10^−2 | Relative gene expression level with respect to ACTB in 2^−Λ Ct, OCT4 [2, 9]: 2.27 × 10^−1 | Relative gene expression level with respect to ACTB in 2^−Λ Ct, SOX2 [2, 9]: 2.44 × 10^−2 | Relative gene expression level with respect to ACTB in 2^−Λ Ct, Nanog [2, 10]: 2.91 × 10^−2 | Relative gene expression level with respect to ACTB in 2^−Λ Ct, OCT4 [2, 10]: 2.63 × 10^−1 | Relative gene expression level with respect to ACTB in 2^−Λ Ct, SOX2 [2, 10]: 2.75 × 10^−2 | Relative gene expression level with respect to ACTB in 2^−Λ Ct, Nanog [2, 11]: 2.82 × 10^−2 | Relative gene expression level with respect to ACTB in 2^−Λ Ct, OCT4 [2, 11]: 2.50 × 10^−1 | Relative gene expression level with respect to ACTB in 2^−Λ Ct, SOX2 [2, 11]: 2.57 × 10^−2 | Relative gene expression level with respect to ACTB in 2^−Λ Ct, Nanog [2, 12]: 2.96 × 10^−2 | Relative gene expression level with respect to ACTB in 2^−Λ Ct, OCT4 [2, 12]: 2.56 × 10^−1 | Relative gene expression level with respect to ACTB in 2^−Λ Ct, SOX2 [2, 12]: 2.55 × 10^−2 | Relative gene expression level with respect to ACTB in 2^−Λ Ct, Brachyury [2, 13]: 3.14 × 10^−4 | Relative gene expression level with respect to ACTB in 2^−Λ Ct, Nanog [2, 13]: 6.13 × 10^−2 | Relative gene expression level with respect to ACTB in 2^−Λ Ct, OCT4 [2, 13]: 3.60 × 10^−1 | Relative gene expression level with respect to ACTB in 2^−Λ Ct, SOX2 [2, 13]: 2.08 × 10^−2 | Relative gene expression level with respect to ACTB in 2^−Λ Ct, SOX17 [2, 13]: 4.03 × 10^−5
